The assay addresses soluble H ectodomain (sH, amino acids 60-617) of measles virus (measles virus) (UniProt P08362). The experiment in a line: SPR.
Sequence of UniProt P08362 (P08362 60-617 limits assumed): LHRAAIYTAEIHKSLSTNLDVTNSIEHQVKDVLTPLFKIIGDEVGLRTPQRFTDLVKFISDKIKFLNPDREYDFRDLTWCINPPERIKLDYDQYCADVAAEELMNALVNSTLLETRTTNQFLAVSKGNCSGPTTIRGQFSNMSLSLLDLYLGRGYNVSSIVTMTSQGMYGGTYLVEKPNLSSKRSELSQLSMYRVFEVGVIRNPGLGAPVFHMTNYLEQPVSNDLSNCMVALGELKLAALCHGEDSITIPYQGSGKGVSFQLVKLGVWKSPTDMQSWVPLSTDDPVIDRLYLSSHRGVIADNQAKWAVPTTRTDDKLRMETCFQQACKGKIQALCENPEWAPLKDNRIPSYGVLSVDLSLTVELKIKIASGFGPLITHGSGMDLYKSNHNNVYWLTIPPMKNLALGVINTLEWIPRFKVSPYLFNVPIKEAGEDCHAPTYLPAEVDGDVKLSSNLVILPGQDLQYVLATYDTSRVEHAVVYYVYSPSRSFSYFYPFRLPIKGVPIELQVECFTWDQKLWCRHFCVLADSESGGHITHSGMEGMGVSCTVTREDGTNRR

Take “soluble nectin-4 ectodomain fused to human IgG1 Fc domain (N4VCC-Fc) (from UniProt Q96NY8 32-349) (Fc fusion)”: the kon relative to that of SLAM and H is 5 fold.

Values taken from paper PMC3245798.
